These results are taken from PMC12578939.

This experiment has as its target microtubules polymerised from bovine brain tubulin (bovine) (UniProt Q6B856). Nature of the experiment: TIRF microscopy of binding to immobilised microtubules.

“augmin octamer lacking the N-terminal CH domain of Haus6 (residues 1-160) (from UniProt Q6DCY9;Q0IHJ3) (complex)” had a reduction in MT binding against wildtype augmin of 50%.
